Measurements reported in paper PMC5737501.
Read-outs that look alike come from different tables or passages of the source.

Tests used:
Assay in all cases: single-molecule TIRF colocalisation imaging
[1] = target: H3K9me3 chromatin fiber, 12 × 601 array with 177 bp nucleosome repeat length (a177) (human) (UniProt P62805)
[2] = target: H3K9me3 and H4KS16ac chromatin fiber, 12 × 601 array with 177 bp NRL (a177) (human) (UniProt P62805)
[3] = target: H3K9me3 and H4KS16ac chromatin fiber, 12 × 601 array with 197 bp NRL (a197) (human) (UniProt P62805)
[4] = target: H3K9me3 chromatin fiber, 12 × 601 array with 177 bp nucleosome repeat length (a177) (human) (UniProt P62805); remark: listed apart in the source
[5] = target: H3K9me3 chromatin fiber, 12 × 601 array with 197 bp nucleosome repeat length (a197) (human) (UniProt P62805)

HP1γ, labeled with Atto532 at its C-terminus, sequence (Q13185 whole entry): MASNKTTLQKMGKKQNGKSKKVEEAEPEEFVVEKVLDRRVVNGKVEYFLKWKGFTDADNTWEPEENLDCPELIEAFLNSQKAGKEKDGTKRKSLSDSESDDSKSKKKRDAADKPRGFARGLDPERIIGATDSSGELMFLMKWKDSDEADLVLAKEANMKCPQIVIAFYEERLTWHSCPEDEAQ
HP1β, labeled with Atto532 at its C-terminus, sequence (P83916 whole entry): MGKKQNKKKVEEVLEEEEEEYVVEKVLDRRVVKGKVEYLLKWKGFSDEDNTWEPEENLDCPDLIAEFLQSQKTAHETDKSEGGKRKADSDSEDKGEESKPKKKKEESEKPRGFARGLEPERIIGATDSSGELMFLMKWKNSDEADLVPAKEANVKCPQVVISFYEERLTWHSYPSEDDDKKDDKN
HP1α, labeled with Atto532 at its C-terminus, sequence (P45973 whole entry): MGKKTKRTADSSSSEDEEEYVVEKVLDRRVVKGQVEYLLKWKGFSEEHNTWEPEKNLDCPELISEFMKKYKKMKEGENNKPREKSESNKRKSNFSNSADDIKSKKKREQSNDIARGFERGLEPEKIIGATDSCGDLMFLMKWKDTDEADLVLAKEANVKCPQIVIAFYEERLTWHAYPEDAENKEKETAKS
Phosphorylated HP1α (pHP1α), Atto532-labeled, phosphorylated with casein kinase 2, sequence (P45973 whole entry): as above

Substance	kon [1] [M⁻¹ s⁻¹]	tau off,1 (residence time, fast phase) [1] [s]	tau off,2 (residence time, slow phase) [1] [s]	kon [2] [M⁻¹ s⁻¹]	tau off,1 (residence time, fast phase) [2] [s]	tau off,2 (residence time, slow phase) [2] [s]	kon [3] [M⁻¹ s⁻¹]	tau off,1 (residence time, fast phase) [3] [s]	tau off,2 (residence time, slow phase) [3] [s]	kon [4] [M⁻¹ s⁻¹]	tau off,1 (residence time, fast phase) [4] [s]	tau off,2 (residence time, slow phase) [4] [s]	kon [5] [M⁻¹ s⁻¹]	tau off,1 (residence time, fast phase) [5] [s]	tau off,2 (residence time, slow phase) [5] [s]
HP1α, labeled with Atto532 at its C-terminus (from UniProt P45973 1-191) (natural protein)	360000	0.14	2.97	2.76e+06	0.19	1.92	2.25e+06	0.16	2	1.1e+06	0.19	3.32	2.51e+06	0.24	2.49
HP1β, labeled with Atto532 at its C-terminus (from UniProt P83916 1-185) (natural protein)	–	–	–	–	–	–	–	–	–	670000	0.19	3.6	–	–	–
HP1γ, labeled with Atto532 at its C-terminus (from UniProt Q13185 1-183) (natural protein)	–	–	–	–	–	–	–	–	–	890000	0.17	2.64	–	–	–
Phosphorylated HP1α (pHP1α), Atto532-labeled, phosphorylated with casein kinase 2 (from UniProt P45973 1-191) (natural protein)	–	–	–	–	–	–	–	–	–	1.73e+06	0.26	5.6	–	–	–
